Non-standard residues stand in square brackets, D forms with d. No end group written: not given here. Aib = CC(C)(N)C(=O)O
Molecular target: glucagon-like peptide 1 receptor (GLP-1R)
Assay: cell-based or functional assay

Binder | EC50 (µM), glucose-stimulated insulin secretion (GSIS) assay on pancreatic β cell cultures
H[Aib]EGTFTSDLSKQLEEEAVRLAIEFLKN [GA targeting peptide of SEQ ID NO: 9] | < 10 µM
H[Aib]EGTFTSDLSKQLEEEAVRLAIEFLKNGGPSSGAPPPS [GA targeting peptide of SEQ ID NO: 10] | < 10 µM
